{
  "source": "paper PMC7229824",
  "about": "(Nucleic Acids Research, 2020)",
  "binders": {"B1": {"name": "His-HMGA2 (natural protein)", "chain": "MSARGEGAGQPSTSAQGQPAAPAPQKRGRGRPRKQQQEPTGEPSPKRPRGRPKGSKNKSPSKAAQKKAEATGEKRPRGRPRKWPQQVVQKKPAQEETEETSSQESAEED"}},
  "molecular_target": "GST-PCAF (human, UniProt Q92831 1-832)",
  "sequence (Q92831 whole entry)": "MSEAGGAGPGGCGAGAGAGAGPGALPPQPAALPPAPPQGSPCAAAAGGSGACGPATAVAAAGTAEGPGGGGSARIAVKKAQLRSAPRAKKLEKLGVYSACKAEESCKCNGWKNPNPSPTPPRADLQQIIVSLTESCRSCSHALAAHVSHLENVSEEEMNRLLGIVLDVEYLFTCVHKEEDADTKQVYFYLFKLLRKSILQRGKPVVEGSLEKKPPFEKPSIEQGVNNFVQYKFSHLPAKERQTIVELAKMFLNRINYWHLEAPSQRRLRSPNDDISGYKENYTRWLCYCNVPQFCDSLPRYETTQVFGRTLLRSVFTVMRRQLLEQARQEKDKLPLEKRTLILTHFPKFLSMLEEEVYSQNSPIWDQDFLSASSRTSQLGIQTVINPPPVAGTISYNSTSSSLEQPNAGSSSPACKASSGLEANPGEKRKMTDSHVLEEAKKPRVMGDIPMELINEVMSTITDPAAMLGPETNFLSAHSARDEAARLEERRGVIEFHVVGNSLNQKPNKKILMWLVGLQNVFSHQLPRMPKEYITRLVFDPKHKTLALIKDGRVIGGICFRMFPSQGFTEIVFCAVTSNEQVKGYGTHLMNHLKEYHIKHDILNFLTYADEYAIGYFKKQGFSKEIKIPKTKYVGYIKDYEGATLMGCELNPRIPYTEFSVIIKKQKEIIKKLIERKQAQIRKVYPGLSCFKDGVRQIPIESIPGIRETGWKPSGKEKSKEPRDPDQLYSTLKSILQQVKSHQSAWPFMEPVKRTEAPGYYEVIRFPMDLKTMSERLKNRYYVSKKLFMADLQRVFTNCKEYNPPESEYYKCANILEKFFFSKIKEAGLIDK",
  "test": "pull-down",
  "data": [
    {"binder": "B1", "values": [
      {"measurement": "binding result", "value": "binds"}
    ]}
  ]
}
